Test results reported in patent US20060068465.

What follows are proteins tested against GST-Ub52 fusion protein [GST: P08515].
Sequence of GST-Ub52 fusion protein [GST: P08515] (P08515 whole entry, looked up, the tested form may be a part): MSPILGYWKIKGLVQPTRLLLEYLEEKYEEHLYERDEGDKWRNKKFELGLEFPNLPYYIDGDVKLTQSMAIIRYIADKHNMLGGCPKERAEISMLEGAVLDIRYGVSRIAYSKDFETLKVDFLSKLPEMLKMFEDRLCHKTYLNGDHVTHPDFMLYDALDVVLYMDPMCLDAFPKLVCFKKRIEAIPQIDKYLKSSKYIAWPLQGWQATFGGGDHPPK

Protein | USP activity: cleavage of GST-Ub52 on co-expression in E. coli, SDS-PAGE with Coomassie staining
synaptic USP (synUSP), full length (protein) MAPRLQLEKAAWRWAETVRPEEVSQEHIETAYRIWLEPCIRGVCRRNCRGNPNCLVGIGEHIWLGEIDENSFHNIDDPNCERRKKNSFVGLTNLGASCYVNTFLQVWFLNLELRQALYLCPSTCSDYTKGDGIRGGKDYEPQTICEHLQYLFALLQNSNRRYIDPSGFVKALGLDTGQQQDAQESSKLFMSLLEDTLSKQKNPDVRNVVQQQFCGEYAYVTVCSQCGRESKLVSKFYELELNIQGHKQLTDCISEFLKEERLEGDNRYFCENCQSKQNATRKIRLLSLPCTLNLQLMRFVFDRQTGHKKKLNAYIGFSESLDMEPYVEHKGGSFVYELSAVLIHRGVSAYSGHYIAHVKDPQSGDWYKFNDEDIEKMEGKKLQLGIEEDLTEPSKSQTRKPKCGKGTHCSRNAYMLVYRLQTQEKNHTMVQVPAFLQELVDRDNSKFEEWCVEMAEMRRQSVDKGRAKHEEVKELYQRLPAGAEPYEFVSLEWLQKWLDESTPTKPIDNNACLCSHDKLHPDKISIMKRISEYAADIFYSRYGGGPRLTVKALCKDCVVERCRILRLKNQLNEDYKTVNNLLKATMKGSDGFWVGKSSLRSWRQLALEQLDEQDGEAEQSNGKINGSPFSKDESKEEKKEEEEELNFNEDILCPHGELSISENERRLVSQEAWSKLQQYFPKAPEFPSYKECCSQCKILEREGEENEALHKMIAKEQKTSLPNLFQDKNRPCLSNWPEDTDALYIVSHFFLDEWRKFVRKPARSTPVSSVGNAALLCPHGGLMFTFPSLTKEDSKLIALIWPSEWQMIQKLFVVDKVIKITRIEVGDVNPSQTQYISEPNLCPDCREGLLCQQQKDLREYTQATIYVHKVVDNKKVMKDSAPELNVSSSETEEDKEEAKPDGEKDPDFNQSNGGTKRQKTSQQGYVAYQKQVIRRSTRHRKVRGEKALLVSANQTLKELKIQIMHAFSVAPFDQNLSIDGKILNDDCATLGTLGVIPESVILLKADEPIADYAAMDDVMQVCMPEEGFKGTGLLGH | the amount of the GST-Ub52 protein of 45 kDa decreased, and the proteolysis product of 30 kDa markedly increased along with it
synUSP in which Cys98 was replaced with Ala (protein) MAPRLQLEKAAWRWAETVRPEEVSQEHIETAYRIWLEPCIRGVCRRNCRGNPNCLVGIGEHIWLGEIDENSFHNIDDPNCERRKKNSFVGLTNLGASAYVNTFLQVWFLNLELRQALYLCPSTCSDYTKGDGIRGGKDYEPQTICEHLQYLFALLQNSNRRYIDPSGFVKALGLDTGQQQDAQESSKLFMSLLEDTLSKQKNPDVRNVVQQQFCGEYAYVTVCSQCGRESKLVSKFYELELNIQGHKQLTDCISEFLKEERLEGDNRYFCENCQSKQNATRKIRLLSLPCTLNLQLMRFVFDRQTGHKKKLNAYIGFSESLDMEPYVEHKGGSFVYELSAVLIHRGVSAYSGHYIAHVKDPQSGDWYKFNDEDIEKMEGKKLQLGIEEDLTEPSKSQTRKPKCGKGTHCSRNAYMLVYRLQTQEKNHTMVQVPAFLQELVDRDNSKFEEWCVEMAEMRRQSVDKGRAKHEEVKELYQRLPAGAEPYEFVSLEWLQKWLDESTPTKPIDNNACLCSHDKLHPDKISIMKRISEYAADIFYSRYGGGPRLTVKALCKDCVVERCRILRLKNQLNEDYKTVNNLLKATMKGSDGFWVGKSSLRSWRQLALEQLDEQDGEAEQSNGKINGSPFSKDESKEEKKEEEEELNFNEDILCPHGELSISENERRLVSQEAWSKLQQYFPKAPEFPSYKECCSQCKILEREGEENEALHKMIAKEQKTSLPNLFQDKNRPCLSNWPEDTDALYIVSHFFLDEWRKFVRKPARSTPVSSVGNAALLCPHGGLMFTFPSLTKEDSKLIALIWPSEWQMIQKLFVVDKVIKITRIEVGDVNPSQTQYISEPNLCPDCREGLLCQQQKDLREYTQATIYVHKVVDNKKVMKDSAPELNVSSSETEEDKEEAKPDGEKDPDFNQSNGGTKRQKTSQQGYVAYQKQVIRRSTRHRKVRGEKALLVSANQTLKELKIQIMHAFSVAPFDQNLSIDGKILNDDCATLGTLGVIPESVILLKADEPIADYAAMDDVMQVCMPEEGFKGTGLLGH | The activity of synUSP disappeared by either replacing Cys98 with Ala
yeast UBP2 (protein) MPNEDNELQKAIENHHNQLLNQDKENADRNGSVIEDLPLYGTSINQQSTPGDVDDGKHLLYPDIATNLPLKTSDRLLDDILCDTIFLNSTDPKVMQKGLQSRGILKESMLSYSTFRSSIRPNCLGSLTDQVVFQTKSEYDSISCPKYNKIHVFQAVIFNPSLAEQQISTFDDIVKIPIYHLKVSVKVRQELERLKKHVGVTQFHSLDHLHEYDRVDLSTFDSSDPNLLDYGIYVSDDTNKLILIEIFKPEFNSPEEHESFTADAIKKRYNAMCVKNESLDKSETPSQVDCFYTLFKIFKGPLTRKSKAEPTKTIDSGNLALNTHLNPEWLTSKYGFQASSEIDEETNEIFTEYVPPDMVDYVNDLETRKIRESFVRKCLQLIFWGQLSTSLLAPNSPLKNTKSVKGMSSLQTSFSTLPWFHLLGESRARILLNSNEQTHSPLDAEPHFINLSVSHYYTDRDIIRNYESLSSLDPENIGLYFDALTYIANRKGAYQLIAYCGKQDIIGQEALENALLMFKINPKECNISELNEATLLSIYKYETSNKSQVTSNHLTNLKNALRLLAKYTKSDKLKFYVDHEPYRALSQAYDTLSIDESVDEDIIKTAYSVKINDSPGLKLDCDRALYTIAISKRSLDLFNFLTEECPQFSNYYGPEKLDYQEALKLLQVNENASDETILKIFKQKWFDENVYEPDQFLILRAALTKISIERNSTLITNFLLTGTIDPNSLPPENWPTGINNIGNTCYLNSLLQYYFSIAPLRRYVLEYQKTVENFNDHLSNSGHIRRIGGREISRGEVERSIQFIYQLRNLFYAMVHTRERCVTPSKELAYLAFAPSNVEVEFEVEGNKVVDQTGVLSDSKKETTDDAFTTKIKDTSLIDLEMEDGLNGDVGTDANRKKNESNDAEVSENEDTTGLTSPTRVAKISSDQLENALEMGRQQDVTECIGNVLFQIESGSEPIRYDEDNEQYDLVKQLFYGTTKQSIVPLSATNKVRTKVERFLSLLINIGDHPKDIYDAFDSYFKDEYLTMEEYGDVIRTVAVTTFPTILQVQIQRVYYDRERLMPFKSIEPLPFKEVIYMDRYADTENPLLLAKKKETEEMKQKLKVMKNRQRELLSRDDSGLTRKDAFLESIKLLESDTIKKTPLKIEAANDVIKTLRNNVQNIDNELMKLYNDINSLEEKISHQFDDFKEYGYSLFSVFIHRGEASYGHYWIYIKDRNRNGIWRKYNDETISEVQEEEVFNFNEGNTATPYFLVYVKQGQEGDIEPLKRILK | The GST-Ub52 protein was degraded to a band of 30 kDa by the co-expression of yeast USP2
